Results published in patent US20210355219A1 (HARPOON THERAPEUTICS, published 2021).
Residue numbers refer to the chain shown, from its start.

B1: Unmasked anti-CD40 C00697, C2764 (aCD40 Heavy Chain GDSE) (antibody, human IgG1, kappa, V domains shown)
VH: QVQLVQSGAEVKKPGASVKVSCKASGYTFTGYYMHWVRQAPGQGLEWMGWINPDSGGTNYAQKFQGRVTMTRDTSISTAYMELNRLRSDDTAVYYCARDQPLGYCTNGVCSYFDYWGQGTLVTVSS
VL: DIQMTQSPSSVSASVGDRVTITCRASQGIYSWLAWYQQKPGKAPNLLIYTASTLQSGVPSRFSGSGSGTDFTLTISSLQPEDFATYYCQQANIFPLTFGGGTKVEIKR
notes: Anti-CD40 light chain without an anti-Alb domain; also called Active mimic C00697, C2764; control active mimic
B2: anti-Alb mask070 anti-CD40 C2882, C2764 (aCD40 Heavy Chain GDSE) (bispecific antibody, human IgG1, kappa)
heavy: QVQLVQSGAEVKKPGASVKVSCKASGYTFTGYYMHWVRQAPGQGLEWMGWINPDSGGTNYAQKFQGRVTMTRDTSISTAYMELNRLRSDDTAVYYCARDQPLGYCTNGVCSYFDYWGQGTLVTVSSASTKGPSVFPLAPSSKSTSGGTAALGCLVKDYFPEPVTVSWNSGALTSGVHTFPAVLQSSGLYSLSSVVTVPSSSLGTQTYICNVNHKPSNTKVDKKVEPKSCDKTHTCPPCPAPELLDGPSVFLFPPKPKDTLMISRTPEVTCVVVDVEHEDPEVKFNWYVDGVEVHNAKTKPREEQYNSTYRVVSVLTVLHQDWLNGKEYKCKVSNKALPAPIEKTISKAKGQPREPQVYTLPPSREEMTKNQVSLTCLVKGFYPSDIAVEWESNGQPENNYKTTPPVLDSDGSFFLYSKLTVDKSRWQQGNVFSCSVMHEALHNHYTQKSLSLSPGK
light: EVQLVESGGGLVQPGNSLTLSCAASGFTFSKFGMSWVRQARAASAGQGLEWVSSISGSGRDTLYADSVKGRFTISRDNAKTTLYLQMNSLRPEDTAVYYCTIGGSLSVSSQGTLVTVSSGGGGSGGGSGGGGSGGGSDIQMTQSPSSVSASVGDRVTITCRASQGIYSWLAWYQQKPGKAPNLLIYTASTLQSGVPSRFSGSGSGTDFTLTISSLQPEDFATYYCQQANIFPLTFGGGTKVEIKRTVAAPSVFIFPPSDEQLKSGTASVVCLLNNFYPREAKVQWKVDNALQSGNSQESVTEQDSKDSTYSLSSTLTLSKADYEKHKVYACEVTHQGLSSPVTKSFNRGEC
notes: Non-cleavable linker; Purified by Protein A. Same light chain as m2 but with the GDSE heavy chain C2764; also called C2882 aAlb-CD40-mask070
B3: anti-Alb mask070 L040 anti-CD40, C2905, C2764, L040 (-) Protease (bispecific antibody, human IgG1, kappa)
heavy: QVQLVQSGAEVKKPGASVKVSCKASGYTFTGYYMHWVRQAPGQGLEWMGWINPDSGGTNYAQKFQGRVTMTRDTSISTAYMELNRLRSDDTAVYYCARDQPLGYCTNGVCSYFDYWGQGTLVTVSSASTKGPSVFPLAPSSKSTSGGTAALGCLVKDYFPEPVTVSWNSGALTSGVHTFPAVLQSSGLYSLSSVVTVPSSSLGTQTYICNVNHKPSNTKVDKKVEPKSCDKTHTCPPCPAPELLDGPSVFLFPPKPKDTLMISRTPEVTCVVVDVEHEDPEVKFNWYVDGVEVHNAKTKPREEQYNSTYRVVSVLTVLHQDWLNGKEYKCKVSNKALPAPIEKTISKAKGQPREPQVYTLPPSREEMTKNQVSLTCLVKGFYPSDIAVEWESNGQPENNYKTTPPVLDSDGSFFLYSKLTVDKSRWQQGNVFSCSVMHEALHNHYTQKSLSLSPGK
light: EVQLVESGGGLVQPGNSLTLSCAASGFTFSKFGMSWVRQARAASAGQGLEWVSSISGSGRDTLYADSVKGRFTISRDNAKTTLYLQMNSLRPEDTAVYYCTIGGSLSVSSQGTLVTVSSGGGGPQASTGRSGGGGSDIQMTQSPSSVSASVGDRVTITCRASQGIYSWLAWYQQKPGKAPNLLIYTASTLQSGVPSRFSGSGSGTDFTLTISSLQPEDFATYYCQQANIFPLTFGGGTKVEIKRTVAAPSVFIFPPSDEQLKSGTASVVCLLNNFYPREAKVQWKVDNALQSGNSQESVTEQDSKDSTYSLSSTLTLSKADYEKHKVYACEVTHQGLSSPVTKSFNRGEC
B4: anti-Alb mask070 L040 anti-CD40, C2905, C2764, L040 (+) Protease (antibody)
heavy: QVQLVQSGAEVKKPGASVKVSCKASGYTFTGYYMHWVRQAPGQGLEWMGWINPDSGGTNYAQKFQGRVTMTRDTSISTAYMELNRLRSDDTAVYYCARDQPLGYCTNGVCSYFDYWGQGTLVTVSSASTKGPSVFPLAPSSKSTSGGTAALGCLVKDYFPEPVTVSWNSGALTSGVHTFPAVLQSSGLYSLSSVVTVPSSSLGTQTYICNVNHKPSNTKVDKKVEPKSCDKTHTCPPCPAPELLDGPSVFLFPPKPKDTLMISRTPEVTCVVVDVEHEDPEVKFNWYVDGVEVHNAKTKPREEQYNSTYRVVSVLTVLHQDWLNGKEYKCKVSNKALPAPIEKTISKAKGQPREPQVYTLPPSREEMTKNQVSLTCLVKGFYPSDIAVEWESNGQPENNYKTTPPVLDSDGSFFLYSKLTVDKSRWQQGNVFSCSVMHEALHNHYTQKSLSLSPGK
light: B3 light
B5: anti-Alb-CD-2-D07 masked anti-CD40 protein with anti-CD40 heavy chain SEQ ID No. 73 (bispecific antibody, human IgG1, kappa)
heavy: not shown
light: B2 light with S44T, Q47S
notes: Built as m2; Signal domain left out; Tested in conditioned media; also called aAlb-CD-2-D07
B6: anti-Alb-CD-2-B07 masked anti-CD40 protein with anti-CD40 heavy chain SEQ ID No. 73 (bispecific antibody, human IgG1, kappa)
heavy: not shown
light: B2 light with R41V, A42R, A43P, S44R, A45G, G46T, Q47G
notes: Built as m2; Signal domain left out; Tested in conditioned media; also called aAlb-CD-2-B07
B7: anti-Alb-CD-2-D08 masked anti-CD40 protein with anti-CD40 heavy chain SEQ ID No. 73 (bispecific antibody, human IgG1, kappa)
heavy: not shown
light: B2 light with R41T, A42S, A43W, S44R, A45H, G46E, Q47R
notes: Built as m2; Signal domain left out; Tested in conditioned media; also called aAlb-CD-2-D08
B8: anti-Alb-CD-1-A09 masked anti-CD40 protein with anti-CD40 heavy chain SEQ ID No. 73 (bispecific antibody, human IgG1, kappa)
heavy: not shown
light: EVQLVESGGGLVQPGNSLTLSCAASGFTFSKFGMSWVRQAPGSQKPGLEWVSSISGSGRDTLYADSVKGRFTISRDNAKTTLYLQMNSLRPEDTAVYYCTIGGSLSVSSQGTLVTVSSGGGGSGGGSGGGGSGGGSDIQMTQSPSSVSASVGDRVTITCRASQGIYSWLAWYQQKPGKAPNLLIYTASTLQSGVPSRFSGSGSGTDFTLTISSLQPEDFATYYCQQANIFPLTFGGGTKVEIKRTVAAPSVFIFPPSDEQLKSGTASVVCLLNNFYPREAKVQWKVDNALQSGNSQESVTEQDSKDSTYSLSSTLTLSKADYEKHKVYACEVTHQGLSSPVTKSFNRGEC
notes: Built as m2; Signal domain left out; Tested in conditioned media; also called aAlb-CD-1-A09
B9: anti-Alb-CD-2-A10 masked anti-CD40 protein with anti-CD40 heavy chain SEQ ID No. 73 (bispecific antibody, human IgG1, kappa)
heavy: not shown
light: EVQLVESGGGLVQPGNSLTLSCAASGFTFSKFGMSWVRQAVGTRETSGGLEWVSSISGSGRDTLYADSVKGRFTISRDNAKTTLYLQMNSLRPEDTAVYYCTIGGSLSVSSQGTLVTVSSGGGGSGGGSGGGGSGGGSDIQMTQSPSSVSASVGDRVTITCRASQGIYSWLAWYQQKPGKAPNLLIYTASTLQSGVPSRFSGSGSGTDFTLTISSLQPEDFATYYCQQANIFPLTFGGGTKVEIKRTVAAPSVFIFPPSDEQLKSGTASVVCLLNNFYPREAKVQWKVDNALQSGNSQESVTEQDSKDSTYSLSSTLTLSKADYEKHKVYACEVTHQGLSSPVTKSFNRGEC
notes: Built as m2; Signal domain left out; Tested in conditioned media; also called aAlb-CD-2-A10
B10: anti-Alb-CD-2-C11 masked anti-CD40 protein with anti-CD40 heavy chain SEQ ID No. 73 (bispecific antibody, human IgG1, kappa)
heavy: not shown
light: B9 light with V41L, T43R, G48V
notes: Built as m2; Signal domain left out; Tested in conditioned media; also called aAlb-CD-2-C11
B11: anti-Alb-CD-2-D06 masked anti-CD40 protein with anti-CD40 heavy chain SEQ ID No. 73 (bispecific antibody, human IgG1, kappa)
heavy: not shown
light: B9 light with V41M, G42N, T43R, R44H, T46N, S47D, G48R
notes: Built as m2; Signal domain left out; Tested in conditioned media; also called aAlb-CD-2-D06
B12: anti-Alb-CD-2-F10 masked anti-CD40 protein with anti-CD40 heavy chain SEQ ID No. 73 (bispecific antibody, human IgG1, kappa)
heavy: not shown
light: B9 light with T43P
notes: Built as m2; Signal domain left out; Tested in conditioned media; also called aAlb-CD-2-F10
B13: anti-Alb-CD-2-D09 masked anti-CD40 protein with anti-CD40 heavy chain SEQ ID No. 73 (bispecific antibody, human IgG1, kappa)
heavy: not shown
light: B9 light with G42R, E45G
notes: Built as m2; Signal domain left out; Tested in conditioned media; also called aAlb-CD-2-D09
B14: anti-Alb-CD-2-C05 masked anti-CD40 protein with anti-CD40 heavy chain SEQ ID No. 73 (bispecific antibody, human IgG1, kappa)
heavy: not shown
light: B9 light with V41L, T43R, R44H, T46S, G48V
notes: Built as m2; Signal domain left out; Tested in conditioned media; also called aAlb-CD-2-C05
B15: anti-Alb-CD-2-F09 masked anti-CD40 protein with anti-CD40 heavy chain SEQ ID No. 73 (bispecific antibody, human IgG1, kappa)
heavy: not shown
light: B9 light with V41P, G42Y, T43S, R44Q, E45P, S47K, G48A
notes: Built as m2; Signal domain left out; Tested in conditioned media; also called aAlb-CD-2-F09
B16: anti-Alb-CD-1-F06 masked anti-CD40 protein with anti-CD40 heavy chain SEQ ID No. 73 (bispecific antibody, human IgG1, kappa)
heavy: not shown
light: B9 light with G42R, E45R
notes: Built as m2; Signal domain left out; Tested in conditioned media; also called aAlb-CD-1-F06

These binders were tested against CD40 on purified human B cells (human, UniProt P25942 21-277) (assay: cell-based or functional assay).
CD40 on purified human B cells, sequence (P25942 21-277): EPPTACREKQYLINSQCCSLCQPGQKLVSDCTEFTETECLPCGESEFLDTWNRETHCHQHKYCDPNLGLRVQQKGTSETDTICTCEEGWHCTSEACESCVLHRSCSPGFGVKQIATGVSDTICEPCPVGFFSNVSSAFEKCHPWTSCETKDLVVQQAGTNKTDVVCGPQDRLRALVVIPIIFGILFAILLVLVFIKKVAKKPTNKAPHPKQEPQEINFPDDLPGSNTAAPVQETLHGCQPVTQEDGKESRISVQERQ
In the case of B1, the “Activity shift, B cell activation” value is reported as 1 fold and the “EC50 (M), B cell activation (percentage of CD86 positive B cells, flow cytometry, 48 hours)” value is reported as 2.1e-11 M. B2 was tested, and the “Activity shift, B cell activation” value was 2000 fold. In the case of B3, the “Activity shift, B cell activation” value is reported as 2000 fold. B4 was tested, and the “Activity shift, B cell activation” value was 1 fold and the “EC50 (M), B cell activation (percentage of CD86 positive B cells, flow cytometry, 48 hours)” value was 1.6e-11 M.

The binders below were run against T1, C00703 huCD40::Fc (human) (assay: BLI (Octet); huCD40::Fc immobilized, masked protein at 100 nM in conditioned media; nm shift relative to unmasked control anti-Alb-anti-CD40).
T1 construct: also called human CD40 protein; immobilized huCD40
T1 sequence (chain, as listed by the source limits assumed): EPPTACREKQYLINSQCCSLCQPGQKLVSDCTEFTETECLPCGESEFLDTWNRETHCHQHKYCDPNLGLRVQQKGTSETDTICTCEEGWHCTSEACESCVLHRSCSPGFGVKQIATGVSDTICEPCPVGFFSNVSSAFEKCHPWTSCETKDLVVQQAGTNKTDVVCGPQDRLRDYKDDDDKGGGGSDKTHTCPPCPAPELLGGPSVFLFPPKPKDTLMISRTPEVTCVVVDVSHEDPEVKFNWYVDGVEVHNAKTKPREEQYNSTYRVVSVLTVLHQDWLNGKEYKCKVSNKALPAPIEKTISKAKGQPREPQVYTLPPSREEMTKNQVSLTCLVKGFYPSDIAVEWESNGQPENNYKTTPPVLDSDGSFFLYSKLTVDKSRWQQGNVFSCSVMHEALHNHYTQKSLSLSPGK
In the case of B5, the “Binding response (% of control)” value is reported as 48 % of control. With B6 the “Binding response (% of control)” value was 64 % of control. For B7, the “Binding response (% of control)” value was 68 % of control. B8 was tested, and the “Binding response (% of control)” value was 67 % of control. For B9, the “Binding response (% of control)” value was 65 % of control. For B10, the “Binding response (% of control)” value was 63 % of control. With B11 the “Binding response (% of control)” value was 42 % of control. For B12, the “Binding response (% of control)” value was 63 % of control. With B13 the “Binding response (% of control)” value was 66 % of control. For B14, the “Binding response (% of control)” value was 31 % of control. B15 was tested, and the “Binding response (% of control)” value was 75 % of control. In the case of B16, the “Binding response (% of control)” value is reported as 57 % of control.

Each binder was assayed against T1, C00703 huCD40::Fc (assay: ELISA, immobilized huCD40; the reference of the shift).
For B1, the Binding shift was 1 fold.

Each binder was assayed against T1, C00703 huCD40::Fc (assay: ELISA, immobilized huCD40, purified protein).
In the case of B1, the EC50 is reported as 0.48 nM. Binder B2 has an EC50 of 25 nM.

Each binder was assayed against T1, C00703 huCD40::Fc (assay: ELISA, immobilized huCD40; EC50 shift against unmasked anti-CD40).
For B2, the Binding shift was 52 fold.
